The target of this test is bromelain-released influenza hemagglutinin (X31) (influenza virus X31). The experiment in a line: […].

These results are taken from article PMC3840220.

For orientation: stoichiometry N means a count of units in the complex or per binding partner. In the case of “bromelain-released influenza hemagglutinin (X31) (domain or fragment)”, the stoichiometry N was 3.
